Laboratory results reported in article PMC9482650, “Quantitative fragmentomics allow affinity mapping of interactomes” (Nature Communications, 2022).

Experiments:
Experiment in all cases: holdup assay
Set-up in all cases: key: below the threshold = too weak to quantify, mostly under pKd 3.1 to 4
RGS3, P49796-9 = target: RGS3, P49796-9
PDZD2_4, O15018 = target: T1, PDZD2_4, O15018
T1 sequence (O15018 723-823, limits assumed, looked up): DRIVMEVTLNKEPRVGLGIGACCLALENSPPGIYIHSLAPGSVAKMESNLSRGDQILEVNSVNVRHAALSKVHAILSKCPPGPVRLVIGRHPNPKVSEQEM

MAGIX, Q9H6Y5 = target: MAGIX, Q9H6Y5
Chain of MAGIX, Q9H6Y5 (Q9H6Y5 118-211): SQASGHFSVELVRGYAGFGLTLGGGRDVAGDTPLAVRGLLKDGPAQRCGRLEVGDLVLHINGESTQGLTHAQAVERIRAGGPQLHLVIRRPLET

PDLIM4, P50479 = target: PDLIM4, P50479
Chain of PDLIM4, P50479 (P50479 1-83): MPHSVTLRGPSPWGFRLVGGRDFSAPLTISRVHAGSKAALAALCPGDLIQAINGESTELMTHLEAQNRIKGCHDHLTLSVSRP

IL16_2, Q14005 = target: IL16_2, Q14005
Chain of IL16_2, Q14005 (Q14005 350-450): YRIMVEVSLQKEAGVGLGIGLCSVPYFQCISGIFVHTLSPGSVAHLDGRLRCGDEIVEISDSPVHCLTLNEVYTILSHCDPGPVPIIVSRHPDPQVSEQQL

MAGI2_1, Q86UL8 = target: T2, MAGI2_1, Q86UL8
T2 sequence (Q86UL8 12-111, limits assumed, looked up): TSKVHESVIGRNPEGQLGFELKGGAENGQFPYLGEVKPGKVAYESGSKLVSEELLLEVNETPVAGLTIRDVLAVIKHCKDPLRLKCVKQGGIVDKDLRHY

PREX1_1, Q8TCU6 = target: PREX1_1, Q8TCU6
Chain of PREX1_1, Q8TCU6 (Q8TCU6 608-718): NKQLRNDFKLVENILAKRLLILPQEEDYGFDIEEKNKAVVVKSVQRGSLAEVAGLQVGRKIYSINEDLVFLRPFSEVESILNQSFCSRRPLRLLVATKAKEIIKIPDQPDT

SHROOM3, Q8TF72 = target: T3, SHROOM3, Q8TF72
T3 sequence (Q8TF72 20-120, limits assumed, looked up): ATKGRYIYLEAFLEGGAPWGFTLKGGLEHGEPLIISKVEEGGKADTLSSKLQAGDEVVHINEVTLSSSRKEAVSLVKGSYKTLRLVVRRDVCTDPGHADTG

SYNPO2L, Q9H987 = target: T4, SYNPO2L, Q9H987
T4 sequence (Q9H987 1-98, limits assumed, looked up): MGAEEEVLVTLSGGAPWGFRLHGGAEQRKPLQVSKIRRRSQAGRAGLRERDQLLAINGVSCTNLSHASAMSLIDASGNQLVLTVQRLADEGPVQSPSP

DLG5_2, Q8TDM6 = target: DLG5_2, Q8TDM6
Chain of DLG5_2, Q8TDM6 (Q8TDM6 714-800): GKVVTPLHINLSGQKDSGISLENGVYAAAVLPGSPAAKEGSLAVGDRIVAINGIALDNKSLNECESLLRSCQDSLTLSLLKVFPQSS

SHROOM2, Q13796 = target: T5, SHROOM2, Q13796
T5 sequence (Q13796 21-118, limits assumed, looked up): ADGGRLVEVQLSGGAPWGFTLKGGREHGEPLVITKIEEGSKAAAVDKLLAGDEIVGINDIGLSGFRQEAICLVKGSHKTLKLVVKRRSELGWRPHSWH

MPDZ_6, O75970 = target: T6, MPDZ_6, O75970
T6 sequence (O75970 1003-1099, limits assumed, looked up): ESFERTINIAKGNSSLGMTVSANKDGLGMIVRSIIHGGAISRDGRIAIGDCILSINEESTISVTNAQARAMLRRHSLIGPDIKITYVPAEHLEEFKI

CNKSR1, Q969H4 = target: T7, CNKSR1, Q969H4
T7 sequence (Q969H4 191-295, limits assumed, looked up): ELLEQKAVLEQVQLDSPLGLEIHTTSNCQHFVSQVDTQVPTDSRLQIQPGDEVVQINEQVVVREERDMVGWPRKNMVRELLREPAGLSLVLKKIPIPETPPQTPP

INTU, Q9ULD6 = target: T8, INTU, Q9ULD6
T8 sequence (Q9ULD6 180-273, limits assumed, looked up): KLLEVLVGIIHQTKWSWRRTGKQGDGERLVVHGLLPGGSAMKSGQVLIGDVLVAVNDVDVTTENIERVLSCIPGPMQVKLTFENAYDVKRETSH

PDZD2_5, O15018 = target: T9, PDZD2_5, O15018
T9 sequence (O15018 2617-2716, limits assumed, looked up): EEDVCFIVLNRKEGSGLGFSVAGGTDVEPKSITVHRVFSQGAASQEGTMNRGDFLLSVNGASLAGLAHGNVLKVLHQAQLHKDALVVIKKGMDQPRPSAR

LNX2_4, Q8N448 = target: T10, LNX2_4, Q8N448
T10 sequence (Q8N448 595-690, limits assumed, looked up): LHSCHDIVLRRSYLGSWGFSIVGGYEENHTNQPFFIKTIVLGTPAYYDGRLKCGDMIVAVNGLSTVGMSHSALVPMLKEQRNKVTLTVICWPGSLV

PREX2_2, Q70Z35 = target: T11, PREX2_2, Q70Z35
T11 sequence (Q70Z35 672-764, limits assumed, looked up): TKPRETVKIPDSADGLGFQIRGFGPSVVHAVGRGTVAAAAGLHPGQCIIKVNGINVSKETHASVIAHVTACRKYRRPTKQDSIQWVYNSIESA

NHERF4_3, Q86UT5 = target: NHERF4_3, Q86UT5
Chain of NHERF4_3, Q86UT5 (Q86UT5 325-412): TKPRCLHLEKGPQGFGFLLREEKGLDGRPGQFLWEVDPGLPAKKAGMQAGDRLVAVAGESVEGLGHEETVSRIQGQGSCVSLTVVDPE

NHERF1_1, O14745 = target: T12, NHERF1_1, O14745
T12 sequence (O14745 9-104, limits assumed, looked up): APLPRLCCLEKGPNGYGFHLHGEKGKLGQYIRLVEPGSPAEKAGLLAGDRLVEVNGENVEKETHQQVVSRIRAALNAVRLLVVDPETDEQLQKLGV

DVL1, O14640 = target: T13, DVL1, O14640
T13 sequence (O14640 246-333, limits assumed, looked up): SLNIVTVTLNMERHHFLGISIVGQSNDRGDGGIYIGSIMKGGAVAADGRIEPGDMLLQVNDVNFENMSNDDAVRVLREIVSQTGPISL

LNX2_1, Q8N448 = target: T14, LNX2_1, Q8N448
T14 sequence (Q8N448 228-328, limits assumed, looked up): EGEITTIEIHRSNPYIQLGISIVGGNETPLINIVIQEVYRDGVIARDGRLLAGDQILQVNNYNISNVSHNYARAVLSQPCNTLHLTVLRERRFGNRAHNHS

MPDZ_11, O75970 = target: T15, MPDZ_11, O75970
T15 sequence (O75970 1720-1817, limits assumed, looked up): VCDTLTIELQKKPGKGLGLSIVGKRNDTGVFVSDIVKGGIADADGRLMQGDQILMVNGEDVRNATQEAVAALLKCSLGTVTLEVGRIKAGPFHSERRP

[1] = modified: phospho on S at position -3 from the C-terminal residue
[2] = modified: acetyl on K at position -1 from the C-terminal residue
[3] = plain residues with an end cap or a label only (N-terminal biotin on a linker: (peg)3)

Chain of RGS3, P49796-9 (P49796 other isoform, or with tags, fused parts or gaps): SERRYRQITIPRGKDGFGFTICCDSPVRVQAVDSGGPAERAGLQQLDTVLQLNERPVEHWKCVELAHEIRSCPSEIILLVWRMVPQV

RRVRKLPSTTL [RPS6KA1_-3P, Q15418]
pKd (RGS3, P49796-9; [1]): below the threshold | pKd (PDZD2_4, O15018; [1]): below the threshold | pKd (MAGIX, Q9H6Y5; [1]): below the threshold | pKd (PDLIM4, P50479; [1]): 3.63 | pKd (IL16_2, Q14005; [1]): below the threshold | pKd (MAGI2_1, Q86UL8; [1]): below the threshold | pKd (PREX1_1, Q8TCU6; [1]): below the threshold | pKd (SHROOM3, Q8TF72; [1]): below the threshold | pKd (SYNPO2L, Q9H987; [1]): below the threshold | pKd (DLG5_2, Q8TDM6; [1]): below the threshold | pKd (SHROOM2, Q13796; [1]): 3.71 | pKd (MPDZ_6, O75970; [1]): below the threshold | pKd (CNKSR1, Q969H4; [1]): 3.49 | pKd (INTU, Q9ULD6; [1]): below the threshold | pKd (PDZD2_5, O15018; [1]): below the threshold | pKd (LNX2_4, Q8N448; [1]): below the threshold | pKd (PREX2_2, Q70Z35; [1]): below the threshold | pKd (NHERF4_3, Q86UT5; [1]): below the threshold | pKd (NHERF1_1, O14745; [1]): below the threshold | pKd (DVL1, O14640; [1]): below the threshold | pKd (LNX2_1, Q8N448; [1]): below the threshold | pKd (MPDZ_11, O75970; [1]): below the threshold

DEDQHTQITKV [PTEN_Ac, P60484]
pKd (RGS3, P49796-9; [2]): below the threshold | pKd (PDZD2_4, O15018; [2]): below the threshold | pKd (MAGIX, Q9H6Y5; [2]): below the threshold | pKd (PDLIM4, P50479; [2]): below the threshold | pKd (IL16_2, Q14005; [2]): below the threshold | pKd (MAGI2_1, Q86UL8; [2]): below the threshold | pKd (PREX1_1, Q8TCU6; [2]): below the threshold | pKd (SHROOM3, Q8TF72; [2]): below the threshold | pKd (SYNPO2L, Q9H987; [2]): below the threshold | pKd (DLG5_2, Q8TDM6; [2]): below the threshold | pKd (SHROOM2, Q13796; [2]): below the threshold | pKd (MPDZ_6, O75970; [2]): below the threshold | pKd (CNKSR1, Q969H4; [2]): 3.66 | pKd (INTU, Q9ULD6; [2]): below the threshold | pKd (PDZD2_5, O15018; [2]): below the threshold | pKd (LNX2_4, Q8N448; [2]): below the threshold | pKd (PREX2_2, Q70Z35; [2]): below the threshold | pKd (NHERF4_3, Q86UT5; [2]): below the threshold | pKd (NHERF1_1, O14745; [2]): 4.85 | pKd (DVL1, O14640; [2]): below the threshold | pKd (LNX2_1, Q8N448; [2]): below the threshold | pKd (MPDZ_11, O75970; [2]): 3.78

YDEPTTTTSVPL [SARS-Cov2-3a, P0DTC3]
pKd (RGS3, P49796-9; [3]): 4.19 | pKd (PDZD2_4, O15018; [3]): below the threshold | pKd (MAGIX, Q9H6Y5; [3]): below the threshold | pKd (PDLIM4, P50479; [3]): below the threshold | pKd (IL16_2, Q14005; [3]): below the threshold | pKd (MAGI2_1, Q86UL8; [3]): below the threshold | pKd (PREX1_1, Q8TCU6; [3]): below the threshold | pKd (SHROOM3, Q8TF72; [3]): below the threshold | pKd (SYNPO2L, Q9H987; [3]): below the threshold | pKd (DLG5_2, Q8TDM6; [3]): below the threshold | pKd (SHROOM2, Q13796; [3]): 3.81 | pKd (MPDZ_6, O75970; [3]): below the threshold | pKd (CNKSR1, Q969H4; [3]): below the threshold | pKd (INTU, Q9ULD6; [3]): 3.86 | pKd (PDZD2_5, O15018; [3]): below the threshold | pKd (LNX2_4, Q8N448; [3]): below the threshold | pKd (PREX2_2, Q70Z35; [3]): below the threshold | pKd (NHERF4_3, Q86UT5; [3]): below the threshold | pKd (NHERF1_1, O14745; [3]): below the threshold | pKd (DVL1, O14640; [3]): below the threshold | pKd (LNX2_1, Q8N448; [3]): below the threshold | pKd (MPDZ_11, O75970; [3]): below the threshold
